From patent US20190010224A1 (Merck Sharp & Dohme, published 2019)

Experiments:
[1] = molecular target: T1, recombinant human IL-10 (human, UniProt P22301 19-178); assay: binding ELISA on immobilized recombinant human IL-10; potency relative to reference material; sample stored at 5 C, 1 month
T1 construct: Immobilized on ELISA microtiter plates; also called interleukin-10
Procedure: (§1) In the ELISA assay, individual dose response curves were generated by using a serial dilution of anti-IL10 reference material or test samples binding to recombinant human IL-10 immobilized on ELISA microtiter plates. Then, by using a SoftMax Pro GxP four-parameter logistic curve fitting analysis, EC₅₀ values of reference material as a control and test samples were determined and a reference-to-sample EC₅₀ ratio was calculated as relative potency for a test sample. Final results were reported as potency relative to reference material.

[2] = molecular target: T1, recombinant human IL-10; assay: binding ELISA on immobilized recombinant human IL-10; potency relative to reference material; sample stored at 5 C, 3 months
Procedure: as §1

[3] = molecular target: T1, recombinant human IL-10; assay: binding ELISA on immobilized recombinant human IL-10; potency relative to reference material; sample stored at 5 C, 6 months
Procedure: as §1

[4] = molecular target: T1, recombinant human IL-10; assay: binding ELISA on immobilized recombinant human IL-10; potency relative to reference material; sample stored at 5 C, initial time point
Procedure: as §1

T1 sequence (P22301 19-178 limits assumed): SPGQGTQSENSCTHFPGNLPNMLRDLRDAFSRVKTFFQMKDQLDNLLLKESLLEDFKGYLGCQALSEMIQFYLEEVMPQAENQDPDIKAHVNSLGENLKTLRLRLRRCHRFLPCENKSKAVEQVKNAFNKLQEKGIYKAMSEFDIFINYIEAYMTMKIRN

B1: anti-IL-10 hum12G8 (antibody, human IgG1, kappa, V domains shown)
VH: QVQLVESGGGVVQPGRSLRLSCAASGFTFSDYHMAWVRQAPGKGLEWVASITLDATYTYYRDSVRGRFTISRDNSKNTLYLQMNSLRAEDTAVYYCARHRGFSVWLDYWGQGTLVTVSS
VL: DIQMTQSPSSLSASVGDRVTITCKTSQNIFENLAWYQQKPGKAPKLLIYNASPLQAGVPSRFSGSGSGTDFTLTISSLQPEDFATYYCHQYYSGYTFGPGTKLELKR
notes: Humanized antibody expressed in CHO cells; It was tested as 50 mg/mL drug product in 10 mM histidine, 7% sucrose, 0.02% PS-80, pH 5.5; also called humanized 12G8; hu12G8
Question: B1 was tested. Which “Potency Binding ELISA/Biological Potency, % (reference-to-sample EC50 ratio)” value [1] did it give?
Answer: 115%

Question: What about the “Potency Binding ELISA/Biological Potency, % (reference-to-sample EC50 ratio)” value [2] of the same binder?
Answer: 99%

Question: What about the “Potency Binding ELISA/Biological Potency, % (reference-to-sample EC50 ratio)” value [3] of the same binder?
Answer: 105%

Question: And the “Potency Binding ELISA/Biological Potency, % (reference-to-sample EC50 ratio)” value [4]?
Answer: 101%
